Measured values reported in the supplement of paper PMC10126150.
± gives the standard deviation of the averaged measurements.

Test system: ATP
Experiment: switch fluorescence ratio, 500 uM ATP over buffer (Cy3 cluster intensity, sum of 5 cycles each) (fold (ratio)); higher = stronger signal-on switching upon ATP binding; sequences stand for … in TCGTCGGCAGCGTCAGATGTGTATAAGAGACAGTTTTTTTTTTTTTTTTTTTTTTTTT…TC
Conditions: aptamer strand: ATP DNA aptamer (quencher-CACCTGGGGGAGTATTGCGGAGGAAGG + anchor), 100 nM annealed; ATP concentration: 500 uM
Outline: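 Per cluster, summed Cy3 intensity from the target cycles was divided by that from the buffer cycles to give the fluorescence ratio, then averaged per switch-domain sequence. Clusters outside 100-1000 RFU were excluded. The Cy3-labelled switching-strand clusters, on a modified Illumina MiSeq flow-cell, were annealed to 100 nM quencher-labelled ATP aptamer and imaged in selection buffer, then after 15 min with 500 uM ATP at 22 °C, for five cycles with NaOH stripping and re-annealing between them.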
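Further: ATP exposure 15 min at 22 °C before imaging.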

Sequence	switch fluorescence ratio
AGCAGAGGGT	0.994 ± 0.04
AGCAGGAGGA	1 ± 0.031
AGCAGGATGC	0.987 ± 0.013
AGCAGGGTTG	1.029 ± 0.01
AGCAGGTGGC	1.13 ± 0.045
AGCATATAGG	1.009 ± 0.0059
AGCATGGCTT	1.04 ± 0.054
AGCATGGTTG	1.01 ± 0.026
AGCATGTATC	1.07 ± 0.012
AGCATTGTGA	0.998 ± 0.051
AGCATTTAGG	1.02 ± 0.035
AGCATTTCTT	0.98 ± 0.042
AGCCATGATG	0.979 ± 0.036
AGCCCGTCGT	0.99 ± 0.022
AGCCCTCGTT	1 ± 0.043
AGCCGAAAGG	1.024 ± 0.0025
AGCCGCGCAG	1.035 ± 0.0056
AGCCGGGGGC	1.004 ± 0.002
AGCCGGGTGT	1.34 ± 0.47
AGCCGTATGA	1.013 ± 0.0087
AGCCTGATCT	1.036 ± 0.0053
AGCCTGGGCT	0.99 ± 0.014
AGCCTGTATG	0.9542 ± 0.0046
AGCCTTAGGG	1 ± 0.02
AGCCTTTTTT	0.982 ± 0.011

Sequence	switch fluorescence ratio
AGCGATGTCG	0.9885 ± 0.0014
AGCGATTCTG	1.02 ± 0.032
AGCGCTGGCG	1 ± 0.049
AGCGGAAGAA	1.02 ± 0.024
AGCGGAGAGG	1.006 ± 0.0096
AGCGGAGTAT	0.998 ± 0.063
AGCGGATTCT	0.984 ± 0.041
AGCGGATTGG	1.02 ± 0.061
AGCGGATTTG	0.966 ± 0.014
AGCGGCAACG	1.08 ± 0.098
AGCGGCCTGG	0.992 ± 0.014
AGCGGCTAAT	0.981 ± 0.011
AGCGGCTCGC	1.007 ± 0.0047
AGCGGGGCGG	1.02 ± 0.017
AGCGGGGCTG	1.01 ± 0.029
AGCGGGTCGG	1 ± 0.021
AGCGGTGTGC	0.9738 ± 0.0031
AGCGGTTAAT	0.984 ± 0.019
AGCTAAAGGC	1.03 ± 0.032
AGCTAACGAC	1.83 ± 0.067
AGCTATCAGC	1.01 ± 0.047
AGCTCAGGGA	1.04 ± 0.027
AGCTGAGGCT	0.999 ± 0.015
AGCTGAGGGG	1.01 ± 0.012
AGCTGATACT	2 ± 0.061
